Test results: the supplement of paper PMC5998384

What was measured:
[1] = system: HeLa Kyoto; experiment: thermal stability score vs G1/S (z-score of summed log2 fold changes over temperatures); higher = more thermally stable than in G1/S
[2] = system: HeLa Kyoto; experiment: melting temperature (median over replicates), in situ; higher = more thermally stable
[3] = system: HeLa Kyoto; experiment: solubility change mitosis vs G1/S (difference of NP-40 vs SDS log2 ratios) (log2 ratio difference); higher = more soluble in mitosis
[4] = system: HeLa Kyoto; experiment: solubility in G1/S (NP-40 vs SDS abundance) (log2 ratio); higher = more soluble; settings: cell cycle stage: G1/S
[5] = cell cycle stage: early G1 (4.5 h after nocodazole release)
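Throughout, for melting temperature (median over replicates), in situ: HeLa Kyoto cells synchronized by double thymidine or nocodazole block, proteins quantified by TMT10plex mass spectrometry, three independent biological replicates.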
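Throughout, for solubility change mitosis vs G1/S (difference of NP-40 vs SDS log2 ratios): synchronized HeLa Kyoto cells (double thymidine block for G1/S, nocodazole release for mitosis), protein amounts in NP-40 versus SDS lysates quantified by mass spectrometry, three biological replicates.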
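Throughout, for solubility in G1/S (NP-40 vs SDS abundance): HeLa Kyoto cells arrested at G1/S by double thymidine block, proteins quantified by TMT10plex mass spectrometry in mild NP-40 versus SDS extracts, three biological replicates.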
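Throughout, for thermal stability score vs G1/S (z-score of summed log2 fold changes over temperatures): synchronized HeLa Kyoto cells, proteins quantified by TMT10plex mass spectrometry, three biological replicates, mitosis taken 0.5 h after nocodazole release, G1/S directly after double thymidine block.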

Sequence | thermal stability score [1, 5] | thermal stability score ([1]; cell cycle stage: mitosis) | melting temperature ([2]; cell cycle stage: G1/S) [°C] | melting temperature ([2]; cell cycle stage: mitosis) [°C] | solubility change mitosis (log2) [3] | solubility in G1/S (log2) [4]
MLSRPKPGESEVDLLHFQSQFLAAGAAPAVQLVKKGNRGGGDANSDRPPLQDHRDVVMLDNLPDLPPALVPSPPKRARPSPGHCLPEDEDPEERLRRHDQHITAVLTKIIERDTSSVAVNLPVPSGVAFPAVFLRSRDTQGKSATSGKRSIFAQEIAARRIAEAKGPSVGEVVPNVGPPEGAVTCETPTPRNQGCQLPGSSHSFQGPNLVTGKGLRDQEAEQEAQTIHEENIARLQAMAPEEILQEQQRLLAQLDPSLVAFLRSHSHTQEQTGETASEEQRPGGPSANVTKEEPLMSAFASEPRKRDKLEPEAPALALPVTPQKEWLHMDTVELEKLHWTQDLPPVRRQQTQERMQARFSLQGELLAPDVDLPTHLGLHHHGEEAERAGYSLQELFHLTRSQVSQQRALALHVLAQVISRAQAGEFGDRLAGSVLSLLLDAGFLFLLRFSLDDRVDGVIATAIRALRALLVAPGDEELLDSTFSWYHGALTFPLMPSQEDKEDEDEDEECPAGKAKRKSPEEESRPPPDLARHDVIKGLLATSLLPRLRYVLEVTYPGPAVVLDILAVLIRLARHSLESATRVLECPRLIETIVREFLPTSWSPVGAGPTPSLYKVPCATAMKLLRVLASAGRNIAARLLSSFDLRSRLCRIIAEAPQELALPPEEAEMLSTEALRLWAVAASYGQGGYLYRELYPVLMRALQVVPRELSTHPPQPLSMQRIASLLTLLTQLTLAAGSTPAETISDSAEASLSATPSLVTWTQVSGLQPLVEPCLRQTLKLLSRPEMWRAVGPVPVACLLFLGAYYQAWSQQPSSCPEDWLQDMQRLSEELLLPLLSQPTLGSLWDSLRHCSLLCNPLSCVPALEAPPSLVSLGCSGGCPRLSLAGSASPFPFLTALLSLLNTLAQIHKGLCGQLAAILAAPGLQNYFLQCVAPGAAPHLTPFSAWALRHEYHLQYLALALAQKAAALQPLPATHAALYHGMALALLSRLLPGSEYLTHELLLSCVFRLEFLPERTSGGPEAADFSDQLSLGSSRVPRCGQGTLLAQACQDLPSIRNCYLTHCSPARASLLASQALHRGELQRVPTLLLPMPTEPLLPTDWPFLPLIRLYHRASDTPSGLSPTDTMGTAMRVLQWVLVLESWRPQALWAVPPAARLARLMCVFLVDSELFRESPVQHLVAALLAQLCQPQVLPNLNLDCRLPGLTSFPDLYANFLDHFEAVSFGDHLFGALVLLPLQRRFSVTLRLALFGEHVGALRALSLPLTQLPVSLECYTVPPEDNLALLQLYFRTLVTGALRPRWCPVLYAVAVAHVNSFIFSQDPQSSDEVKAARRSMLQKTWLLADEGLRQHLLHYKLPNSTLPEGFELYSQLPPLRQHYLQRLTSTVLQNGVSET [RPAP1] | 0.47 | 0.88 | 52.9 | 51.7 | -0.0998 | -0.1
MSDLRITEAFLYMDYLCFRALCCKGPPPARPEYDLVCIGLTGSGKTSLLSKLCSESPDNVVSTTGFSIKAVPFQNAILNVKELGGADNIRKYWSRYYQGSQGVIFVLDSASSEDDLEAARNELHSALQHPQLCTLPFLILANHQDKPAARSVQEIKKYFELEPLARGKRWILQPCSLDDMDALKDSFSQLINLLEEKDHEAVRM [ARL15] | -0.792 | 0.438 | – | 53.2 | -0.114 | 0.118
MALPFRKDLEKYKDLDEDELLGNLSETELKQLETVLDDLDPENALLPAGFRQKNQTSKSTTGPFDREHLLSYLEKEALEHKDREDYVPYTGEKKGKIFIPKQKPVQTFTEEKVSLDPELEEALTSASDTELCDLAAILGMHNLITNTKFCNIMGSSNGVDQEHFSNVVKGEKILPVFDEPPNPTNVEESLKRTKENDAHLVEVNLNNIKNIPIPTLKDFAKALETNTHVKCFSLAATRSNDPVATAFAEMLKVNKTLKSLNVESNFITGVGILALIDALRDNETLAELKIDNQRQQLGTAVELEMAKMLEENTNILKFGYQFTQQGPRTRAANAITKNNDLVRKRRVEGDHQ [TMOD3] | -0.553 | 0.573 | 49.4 | 50.5 | 0.296 | 0.293
MSLNPPIFLKRSEENSSKFVETKQSQTTSIASEDPLQNLCLASQEVLQKAQQSGRSKCLKCGGSRMFYCYTCYVPVENVPIEQIPLVKLPLKIDIIKHPNETDGKSTAIHAKLLAPEFVNIYTYPCIPEYEEKDHEVALIFPGPQSISIKDISFHLQKRIQNNVRGKNDDPDKPSFKRKRTEEQEFCDLNDSKCKGTTLKKIIFIDSTWNQTNKIFTDERLQGLLQVELKTRKTCFWRHQKGKPDTFLSTIEAIYYFLVDYHTDILKEKYRGQYDNLLFFYSFMYQLIKNAKCSGDKETGKLTH [DTWD1] | 1.51 | 1.96 | 50.9 | 50.6 | -0.213 | 0.19
MPGGLLLGDVAPNFEANTTVGRIRFHDFLGDSWGILFSHPRDFTPVCTTELGRAAKLAPEFAKRNVKLIALSIDSVEDHLAWSKDINAYNCEEPTEKLPFPIIDDRNRELAILLGMLDPAEKDEKGMPVTARVVFVFGPDKKLKLSILYPATTGRNFDEILRVVISLQLTAEKRVATPVDWKDGDSVMVLPTIPEEEAKKLFPKGVFTKELPSGKKYLRYTPQP [PRDX6] | -1.5 | -3.41 | 53.9 | 54.5 | 0.118 | 0.444
MSQVKSSYSYDAPSDFINFSSLDDEGDTQNIDSWFEEKANLENKLLGKNGTGGLFQGKTPLRKANLQQAIVTPLKPVDNTYYKEAEKENLVEQSIPSNACSSLEVEAAISRKTPAQPQRRSLRLSAQKDLEQKEKHHVKMKAKRCATPVIIDEILPSKKMKVSNNKKKPEEEGSAHQDTAEKNASSPEKAKGRHTVPCMPPAKQKFLKSTEEQELEKSMKMQQEVVEMRKKNEEFKKLALAGIGQPVKKSVSQVTKSVDFHFRTDERIKQHPKNQEEYKEVNFTSELRKHPSSPARVTKGCTIVKPFNLSQGKKRTFDETVSTYVPLAQQVEDFHKRTPNRYHLRSKKDDINLLPSKSSVTKICRDPQTPVLQTKHRARAVTCKSTAELEAEELEKLQQYKFKARELDPRILEGGPILPKKPPVKPPTEPIGFDLEIEKRIQERESKKKTEDEHFEFHSRPCPTKILEDVVGVPEKKVLPITVPKSPAFALKNRIRMPTKEDEEEDEPVVIKAQPVPHYGVPFKPQIPEARTVEICPFSFDSRDKERQLQKEKKIKELQKGEVPKFKALPLPHFDTINLPEKKVKNVTQIEPFCLETDRRGALKAQTWKHQLEEELRQQKEAACFKARPNTVISQEPFVPKKEKKSVAEGLSGSLVQEPFQLATEKRAKERQELEKRMAEVEAQKAQQLEEARLQEEEQKKEELARLRRELVHKANPIRKYQGLEIKSSDQPLTVPVSPKFSTRFHC [TPX2] | -0.935 | -2.05 | 53.8 | 53.1 | 0.425 | -0.167
